In patent publication US20220363770A1 (Amgen, published 2022):

Assays:
[1] = target: human CGRP receptor (human CRLR / human RAMP1 heterodimer) on SK-N-MC (HTB-10) cells (human, UniProt Q16602 23-461; O60894 27-148); assay: cell-based or functional assay
[2] = target: T1, human PAC1 receptor on SH-SY5Y (CRL-2266) cells (human, UniProt P41586 24-468); assay: cell-based or functional assay
T1 sequence: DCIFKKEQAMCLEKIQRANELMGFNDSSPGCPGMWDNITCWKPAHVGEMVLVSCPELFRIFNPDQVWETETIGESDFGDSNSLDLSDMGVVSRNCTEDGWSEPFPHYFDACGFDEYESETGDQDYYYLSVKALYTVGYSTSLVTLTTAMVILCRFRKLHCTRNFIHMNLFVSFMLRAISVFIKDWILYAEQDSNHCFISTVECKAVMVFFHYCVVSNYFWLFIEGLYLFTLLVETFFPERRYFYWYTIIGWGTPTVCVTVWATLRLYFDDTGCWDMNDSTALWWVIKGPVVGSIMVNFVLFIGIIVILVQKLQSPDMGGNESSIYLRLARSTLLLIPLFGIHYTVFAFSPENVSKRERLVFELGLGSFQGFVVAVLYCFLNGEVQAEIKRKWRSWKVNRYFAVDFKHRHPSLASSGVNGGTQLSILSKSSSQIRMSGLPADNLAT

Sequence of human CGRP receptor (human CRLR / human RAMP1 heterodimer) on SK-N-MC (HTB-10) cells (Q16602 23-461 limits assumed, chain 1 of 2): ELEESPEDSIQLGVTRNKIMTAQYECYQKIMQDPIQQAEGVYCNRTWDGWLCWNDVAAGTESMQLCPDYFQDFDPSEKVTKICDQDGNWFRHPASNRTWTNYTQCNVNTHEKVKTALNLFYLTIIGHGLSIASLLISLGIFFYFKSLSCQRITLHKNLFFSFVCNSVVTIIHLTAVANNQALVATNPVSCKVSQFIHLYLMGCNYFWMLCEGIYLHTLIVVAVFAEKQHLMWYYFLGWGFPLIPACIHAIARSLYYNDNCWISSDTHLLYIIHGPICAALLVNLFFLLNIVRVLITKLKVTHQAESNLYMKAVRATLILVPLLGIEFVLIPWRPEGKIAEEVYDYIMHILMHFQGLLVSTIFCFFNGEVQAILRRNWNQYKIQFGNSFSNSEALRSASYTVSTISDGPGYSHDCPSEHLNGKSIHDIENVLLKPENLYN
Sequence of human CGRP receptor (human CRLR / human RAMP1 heterodimer) on SK-N-MC (HTB-10) cells (O60894 27-148 limits assumed, chain 2 of 2): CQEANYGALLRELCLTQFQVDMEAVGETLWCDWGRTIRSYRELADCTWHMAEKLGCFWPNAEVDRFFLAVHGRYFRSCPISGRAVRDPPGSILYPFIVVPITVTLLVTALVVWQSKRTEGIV

B1: iPS:571017 (5604) anti-CGRP receptor/anti-PAC1 receptor bispecific hetero-immunoglobulin (bispecific antibody, human IgG1, kappa, lambda, N297G)
light 1: QSVLTQPPSVSAAPGQKVTISCSGSYSNIGRYSVSWYQQLPGTAPKLLIYDNNKRPSGIPDRFSGSKSGTSATLGITGLQTGDEADYYCGTWDSRLSAVVFGGGTKLTVLGQPKAAPSVTLFPPSSEELQANKATLVCLISDFYPGAVTVAWKADSSPVKAGVETTTPSKQSNNKYAAKSYLSLTPEQWKSHRSYSCQVTHEGSTVEKTVAPTECS
heavy 1: QVQLVESGGGVVQPGRSLRLSCAASGFTFSSFGMHWVRQAPGKGLEWVAVISFDGSIKYSVDSVKGRFTISRDNSKNTLFLQMNSLRAEDTAVYYCARDRLNYYESSGYYHYKYYGMAVWGQGTTVTVSSASTKGPSVFPLAPSSKSTSGGTAALGCLVKDYFPEPVTVSWNSGALTSGVHTFPAVLQSSGLYSLESVVTVPSSSLGTQTYICNVNHKPSNTKVDKKVEPKSCDKTHTCPPCPAPELLGGPSVFLFPPKPKDTLYITREPEVTCVVVDVSHEDPEVKFNWYVDGVEVHNAKTKPCEEQYGSTYRCVSVLTVLHQDWLNGKEYKCKVSNKALPAPIEKTISKAKGQPREPQVYTLPPSRKEMTKNQVSLTCLVKGFYPSDIAVEWESNGQPENNYKTTPPVLKSDGSFFLYSKLTVDKSRWQQGNVFSCSVMHEALHNHYTQKSLSLSPGK
light 2: EIVLTQSPATLSLSPGERATLSCRASKSVGRSLHWYQQKPGQAPRLLIKYASQSLSGIPARFSGSGSGTDFTLTISSLEPEDFAVYYCHQSSRLPFTFGPGTKVDIKRTVAAPSVFIFPPSDEQLKSGTASVVCLLNNFYPREAKVQWKVDNALQSGNSQESVTEQDSKDSTYSLESTLTLSKADYEKHKVYACEVTHQGLSSPVTKSFNRGEC
heavy 2: not shown
In the case of B1, the “Fold-improvement over 4E4 Ab (human CGRP receptor IC50)” value (“Fold-improvement over 4E4 Ab” for short) [1] is reported as 1.3 fold, the “Human CGRP Receptor IC50 (nM), cell-based cAMP assay” value (shortened to “Human CGRP Receptor IC50 (nM)”) [1] is reported as 0.45 nM and the “Fold-improvement over 29G4v22 Ab (human PAC1 receptor IC50)” value (“Fold-improvement over 29G4v22 Ab” for short) [2] is reported as 4.8 fold. The “Human PAC1 Receptor IC50 (nM), cell-based cAMP assay” value (shortened to “Human PAC1 Receptor IC50 (nM)”) [2] was 0.86 nM.

B2: iPS:571033 (5608) anti-CGRP receptor/anti-PAC1 receptor bispecific hetero-immunoglobulin (bispecific antibody, human IgG1, kappa, lambda, N297G)
light 1: QSVLTQPPSVSAAPGQKVTISCSGSYSNIGRYSVSWYQQLPGTAPKLLIYDNNKRPSGIPDRFSGSKSGTSATLGITGLQTGDEADYYCGTWDSRLSAVVFGGGTKLTVLGQPKAAPSVTLFPPSSEELQANKATLVCLISDFYPGAVTVAWKADSSPVKAGVETTTPSKQSNNKYAAKSYLSLTPEQWKSHRSYSCQVTHEGSTVEKTVAPTECS
heavy 1: QVQLVESGGGVVQPGRSLRLSCAASGFTFSSFGMHWVRQAPGKGLEWVAVISFDGSIKYSVDSVKGRFTISRDNSKNTLFLQMNSLRAEDTAVYYCARDRLNYYESSGYYHYKYYGMAVWGQGTTVTVSSASTKGPSVFPLAPSSKSTSGGTAALGCLVKDYFPEPVTVSWNSGALTSGVHTFPAVLQSSGLYSLESVVTVPSSSLGTQTYICNVNHKPSNTKVDKKVEPKSCDKTHTCPPCPAPELLGGPSVFLFPPKPKDTLMISRTPEVTCVVVDVSHEDPEVKFNWYVDGVEVHNAKTKPCEEQYGSTYRCVSVLTVLHQDWLNGKEYKCKVSNKALPAPIEKTISKAKGQPREPQVYTLPPSREKMTKNQVSLTCLVKGFYPSDIAVEWESNGQPENNYKTTPPVLKSDGSFFLYSKLTVDKSRWQQGNVFSCSVMHEALHNHYTQKSLSLSPGK
light 2: EIVLTQSPATLSLSPGERATLSCRASKSVGRSLHWYQQKPGQAPRLLIKYASQSLSGIPARFSGSGSGTDFTLTISSLEPEDFAVYYCHQSSRLPFTFGPGTKVDIKRTVAAPSVFIFPPSDEQLKSGTASVVCLLNNFYPREAKVQWKVDNALQSGNSQESVTEQDSKDSTYSLESTLTLSKADYEKHKVYACEVTHQGLSSPVTKSFNRGEC
heavy 2: not shown
With B2 the “Fold-improvement over 4E4 Ab” value [1] was 1.7 fold, the “Human CGRP Receptor IC50 (nM)” value [1] was 0.33 nM and the “Fold-improvement over 29G4v22 Ab” value [2] was 7.2 fold. The “Human PAC1 Receptor IC50 (nM)” value [2] was 0.57 nM.

B3: iPS:571025 (5605) anti-CGRP receptor/anti-PAC1 receptor bispecific hetero-immunoglobulin (bispecific antibody, human IgG1, kappa, lambda, N297G)
light 1: QSVLTQPPSVSAAPGQKVTISCSGSYSNIGRYSVSWYQQLPGTAPKLLIYDNNKRPSGIPDRFSGSKSGTSATLGITGLQTGDEADYYCGTWDSRLSAVVFGGGTKLTVLGQPKAAPSVTLFPPSSEELQANKATLVCLISDFYPGAVTVAWKADSSPVKAGVETTTPSKQSNNKYAAKSYLSLTPEQWKSHRSYSCQVTHEGSTVEKTVAPTECS
heavy 1: QVQLVESGGGVVQPGRSLRLSCAASGFTFSSFGMHWVRQAPGKGLEWVAVISFDGSIKYSVDSVKGRFTISRDNSKNTLFLQMNSLRAEDTAVYYCARDRLNYYESSGYYHYKYYGMAVWGQGTTVTVSSASTKGPSVFPLAPSSKSTSGGTAALGCLVKDYFPEPVTVSWNSGALTSGVHTFPAVLQSSGLYSLESVVTVPSSSLGTQTYICNVNHKPSNTKVDKKVEPKSCDKTHTCPPCPAPELLGGPSVFLFPPKPKDTLYITREPEVTCVVVDVSHEDPEVKFNWYVDGVEVHNAKTKPCEEQYGSTYRCVSVLTVLHQDWLNGKEYKCKVSNKALPAPIEKTISKAKGQPREPQVYTLPPSRKEMTKNQVSLTCLVKGFYPSDIAVEWESNGQPENNYKTTPPVLKSDGSFFLYSKLTVDKSRWQQGNVFSCSVMHEALHNHYTQKSLSLSPGK
light 2: EIVLTQSPATLSLSPGERATLSCRASKSVGRSLHWYQQKPGQAPRLLIKYASQSLSGIPARFSGSGSGTDFTLTISSLEPEDFAVYYCHQSSRLPFTFGPGTKVDIKRTVAAPSVFIFPPSDEQLKSGTASVVCLLNNFYPREAKVQWKVDNALQSGNSQESVTEQDSKDSTYSLESTLTLSKADYEKHKVYACEVTHQGLSSPVTKSFNRGEC
heavy 2: not shown
For B3, the “Fold-improvement over 4E4 Ab” value [1] was 0.9 fold, the “Human CGRP Receptor IC50 (nM)” value [1] was 0.6 nM and the “Fold-improvement over 29G4v22 Ab” value [2] was 3.1 fold. For the same binder, the “Human PAC1 Receptor IC50 (nM)” value [2] was 1.34 nM.

B4: iPS:571023 (5607) anti-CGRP receptor/anti-PAC1 receptor bispecific hetero-immunoglobulin (bispecific antibody, human IgG1, kappa, lambda, N297G)
light 1: QSVLTQPPSVSAAPGQKVTISCSGSYSNIGRYSVSWYQQLPGTAPKLLIYDNNKRPSGIPDRFSGSKSGTSATLGITGLQTGDEADYYCGTWDSRLSAVVFGGGTKLTVLGQPKAAPSVTLFPPSSEELQANKATLVCLISDFYPGAVTVAWKADSSPVKAGVETTTPSKQSNNKYAAKSYLSLTPEQWKSHRSYSCQVTHEGSTVEKTVAPTECS
heavy 1: QVQLVESGGGVVQPGRSLRLSCAASGFTFSSFGMHWVRQAPGKGLEWVAVISFDGSIKYSVDSVKGRFTISRDNSKNTLFLQMNSLRAEDTAVYYCARDRLNYYESSGYYHYKYYGMAVWGQGTTVTVSSASTKGPSVFPLAPSSKSTSGGTAALGCLVKDYFPEPVTVSWNSGALTSGVHTFPAVLQSSGLYSLESVVTVPSSSLGTQTYICNVNHKPSNTKVDKKVEPKSCDKTHTCPPCPAPELLGGPSVFLFPPKPKDTLMISRTPEVTCVVVDVSHEDPEVKFNWYVDGVEVHNAKTKPCEEQYGSTYRCVSVLTVLHQDWLNGKEYKCKVSNKALPAPIEKTISKAKGQPREPQVYTLPPSRKEMTKNQVSLTCLVKGFYPSDIAVEWESNGQPENNYKTTPPVLKSDGSFFLYSKLTVDKSRWQQGNVFSCSVMHEALHNHYTQKSLSLSPGK
light 2: EIVLTQSPATLSLSPGERATLSCRASKSVGRSLHWYQQKPGQAPRLLIKYASQSLSGIPARFSGSGSGTDFTLTISSLEPEDFAVYYCHQSSRLPFTFGPGTKVDIKRTVAAPSVFIFPPSDEQLKSGTASVVCLLNNFYPREAKVQWKVDNALQSGNSQESVTEQDSKDSTYSLESTLTLSKADYEKHKVYACEVTHQGLSSPVTKSFNRGEC
heavy 2: not shown
B4 was tested, and the “Fold-improvement over 4E4 Ab” value [1] was 0.9 fold, the “Human CGRP Receptor IC50 (nM)” value [1] was 0.63 nM and the “Fold-improvement over 29G4v22 Ab” value [2] was 4.4 fold. For the same binder, the “Human PAC1 Receptor IC50 (nM)” value [2] was 0.88 nM.
